Data published in patent US6613878 (CYCLACEL, dated 2003).
Ends that are not written are not given here. * marks the point of attachment. Biotin = O=C1N[C@H]2[C@H](CS[C@H]2CCCCC(=O)*)N1

B1: Fen1 peptide 84 (Fen1PBP, Fen1-PCNA binding peptide) (peptide)
peptide: Biotin-SGSGKRLSKSRQGSTQGRLDDFFK
notes: also called FenPBP
B2: peptide 92, 20 amino acid peptide of the conserved box of S. pombe rad2 (peptide)
peptide: ASKTIPQGRLDSFFKPVPSS
modifications: not fully specified (N-terminus); also: biotinylated, position not given here
notes: also called rad2 peptide
B3: Fen1 peptide 86 (peptide)
peptide: Biotin-SGSGTQGRLDDFFKVTGSLSSAKR
B4: PCNA from Schizosaccharomyces pombe (other, UniProt Q03392 1-260, looked up)
chain: MLEARFQQAALLKKLLDAIKELVTDANFDCNDNGISLQAMDSSHVALVSMLIKSDGFEPYRCDRNIALGINLNALSKVLRCAQNEDLVTLKAEDTPEVLNLVFESEKNDRISDYDVKLMDIDQEHLGIPDIEYDATITMPAAEFQRITRDLLTLSDSVTINASKEGVRFSCKGDIGNGSTTLKQHTDLSDQDQSIEISLTQAVTLTFSLKYLAQFTKATPLATRVTLSMSNDVPLLVEYKMESGFLRFYLAPKIGEEDEE
notes: Two hybrid construct; the Gal4 fusion is not described for this protein; also called S. pombe PCNA; pcn1 product
B5: peptide 93, 20 amino acid peptide of the conserved box of S. cerevisiae RAD27/YKL510 (peptide)
peptide: GLKSGIQGRLDGFFQVVPKT
modifications: not fully specified (N-terminus); also: biotinylated, position not given here
notes: also called RAD27 peptide
B6: PCNA from Drosophila melanogaster (other, UniProt P17917 1-260, looked up)
chain: MFEARLGQATILKKILDAIKDLLNEATFDCSDSGIQLQAMDNSHVSLVSLTLRSDGFDKFRCDRNLSMGMNLGSMAKILKCANNEDNVTMKAQDNADTVTIMFESANQEKVSDYEMKLMNLDQEHLGIPETDFSCVVRMPAMEFARICRDLAQFSESVVICCTKEGVKFSASGDVGTANIKLAQTGSVDKEEEAVIIEMQEPVTLTFACRYLNAFTKATPLSTQVQLSMCADVPLVVEYAIKDLGHIRYYLAPKIEDNET
notes: Two hybrid construct; the Gal4 fusion is not described for this protein; also called D. melanogaster PCNA
B7: Fen1 peptide 85 (peptide)
peptide: Biotin-SGSGSRQGSTQGRLDDFFKVTGSL

Columns and labels:
[1] = biological target: T1, human PCNA (proliferating cell nuclear antigen) (human, UniProt P12004 1-261); experiment: precipitation assay
T1 construct: also called recombinant human PCNA
Experimental: (§1) Twenty amino acid peptides with 15 amino acid overlaps were synthesized (Chiron Mimotopes, Australia) across the 89 amino acids from the C-terminal region of Fen1 identified in the two hybrid screen as the PCNA binding site on Fen1. These peptides were linked via residues SGSG (SEQ ID NO:3) at the amino acid terminus to biotin. 2.7 µg of each peptide was incubated with 10 µl streptavidin agarose beads (Sigma) in phosphate buffered saline (PBS) for 1 hour at room temperature (r.t.) then beads were washed extensively in PBS and recovered each time by centrifugation at 11,600 g. HeLa cell lysate was added to the washed beads to a final protein concentration of 1 mg/ml and incubated with the beads on ice for 1 hour. Beads were extensively washed in PBS with 220 mM NaCl, then bound proteins removed by boiling for 8 minutes in SDS loading buffer with 0.2 M DTT. Proteins were separated on 10% SDS-PAGE then electrophoretically transferred to nitrocellulose. Blots were blocked then incubated for 1 hour r.t. with PC 10 hybridoma supernatant (Waseem & Lane, 1990) diluted 1:5 in DMEM with 10% FCS. After washing, secondary HRP-conjugated anti-mouse IgG serum at 1:1000 in 2% non-fat milk-PBS-0.2% Tween was added for 1 hour at r.t. Bound antibody was visualised using the ECL system according to the manufacturer's instructions (Amersham plc.)
To map precisely the residues of Fen1 to which PCNA binds, a series of biotinylated 20 amino acids peptides (with 15 amino acid overlaps) were synthesized representing the region of Fen1 found to interact with PCNA in the two hybrid screen (FIG. 1). Fen1 peptides (bound to streptavidin agarose beads) were incubated with human HeLa cell extracts, then beads were precipitated and bound protein analysed on immunoblots probed with monoclonal anti-PCNA antibody PC10 (Waseen & Lane, 1990).

[2] = biological target: T2, human Fen1 fused to the transcriptional activation domain of Gal4 (Gal4ACT) (human, UniProt P39748 1-380); experiment: yeast two hybrid
T2 construct: range 1-380; Yeast two hybrid prey; also called DNase IV; rad2hs
Description: The 89 Amino Acids From the C-terminal Region of Fen1 Bind PCNA in an Interaction Trap Proteins that interact physically with human PCNA were screened using a two hybrid interaction trap system that detects protein-protein interactions by reconstitution of a functional Gal4 transcriptional activator in the yeast *Saccharomyces cerevisiae*. A plasmid expressing human PCNA in fusion with the DNA binding domain of Gal4 (Gal4AS) was used to screen plasmids expressing fusion constructs of molecules encoded by fragments from a human cDNA library with the transcriptional activation domain of Gal4 (Gal4ACT). […] The minimal Fen1 fragment isolated in our screen (FIG. 1) encoded the 89 amino acids from the C-terminal region of the protein (full length 380 aa, (Murray et al., 1994)), therefore localising the PCNA binding site to these residues.

[3] = biological target: T1, human PCNA (proliferating cell nuclear …); experiment: peptide on streptavidin agarose beads, precipitation from HeLa extract, PC10 immunoblot
Experimental: as §1, with “These” for “Twenty amino acid peptides with 15 amino acid overlaps were synthesized (Chiron Mimotopes, Australia) across the 89 amino acids from the C-terminal region of Fen1 identified in the two hybrid screen as the PCNA binding site on Fen1. These”
The region of human Fen1 recognised by PCNA in the precipitation assay contains a motif highly conserved in the Fen1 family. We examined whether human PCNA could bind to his motif in the yeast homologues of Fen1, *S. pombe* rad2 and *S. pombe* RAD27/YKL510. […]

T1 sequence (P12004 whole entry): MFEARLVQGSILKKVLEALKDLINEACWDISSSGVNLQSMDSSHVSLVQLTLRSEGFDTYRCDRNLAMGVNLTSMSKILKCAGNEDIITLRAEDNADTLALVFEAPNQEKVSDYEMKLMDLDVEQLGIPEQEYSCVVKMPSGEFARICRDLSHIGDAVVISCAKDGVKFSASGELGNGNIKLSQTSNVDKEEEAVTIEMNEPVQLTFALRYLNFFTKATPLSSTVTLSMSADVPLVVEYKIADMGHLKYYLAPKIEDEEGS
T2 sequence (P39748 whole entry, the tested form may be a part): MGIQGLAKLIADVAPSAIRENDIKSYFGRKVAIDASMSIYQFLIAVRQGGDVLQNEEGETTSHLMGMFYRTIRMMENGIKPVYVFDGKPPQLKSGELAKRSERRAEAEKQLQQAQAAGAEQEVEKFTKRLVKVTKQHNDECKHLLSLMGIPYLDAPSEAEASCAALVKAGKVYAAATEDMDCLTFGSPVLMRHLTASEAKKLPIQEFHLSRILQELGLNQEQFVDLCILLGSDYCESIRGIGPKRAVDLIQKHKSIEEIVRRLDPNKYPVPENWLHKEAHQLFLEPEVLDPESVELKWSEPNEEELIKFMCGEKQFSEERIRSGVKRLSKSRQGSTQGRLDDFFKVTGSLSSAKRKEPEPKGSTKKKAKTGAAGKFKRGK

Binder | binding result [1] | other results
B1 | binds | –
B2 | binds | –
B3 | binds | –
B4 | – | binding result [2]: binds
B5 | – | binding result [3]: binds
B6 | – | binding result [2]: binds
B7 | binds | –
